From paper PMC8074050

Molecular target: nominally empty recombinant adeno-associated virus 5 capsid (adeno-associated virus 5 (recombinant, rAAV5)) (UniProt Q9YIJ1)
Test: SEC-MALS; Superose 6 Increase (10/300), phosphate-buffered saline as mobile phase, 0.8 mL/min, column and detectors at 30 °C, samples kept at 4 °C before injection; RI, UV and RALS/LALS detection; whole capsid with whole capsid (dimer of capsids)

## nominally empty recombinant adeno-associated virus 5 capsid (from UniProt Q9YIJ1 1-724) (complex)
  fraction of sample (%) in the dimer peak: 7.2%
  stoichiometry N: 2
